The values that follow come from patent US20050048548A1 (NEW ENGLAND BIOLABS, published 2005).

In the experiment the target is T1, MBP-BirA fusion (E. coli biotin ligase / biotin holoenzyme synthetase with N-terminal maltose binding protein) (E. coli, UniProt P0AEX9 27-392 = MBP; P06709 1-321, limits assumed).
T1 construct: also called BHS
The experiment can be described thus: phage ELISA on plate-coated MBP-BirA, anti-M13-HRP detection.

B1: non-displaying M13 phage (no insert), without selenocysteine (other, bacteriophage M13, UniProt P69168 19-424, looked up)
chain: AETVESCLAKPHTENSFTNVWKDDKTLDRYANYEGCLWNATGVVVCTGDETQCYGTWVPIGLAIPENEGGGSEGGGSEGGGSEGGGTKPPEYGDTPIPGYTYINPLDGTYPPGTEQNPANPNPSLEESQPLNTFMFQNNRFRNRQGALTVYTGTVTQGTDPVKTYYQYTPVSSKAMYDAYWNGKFRDCAFHSGFNEDPFVCEYQGQSSDLPQPPVNAGGGSGGGSGGGSEGGGSEGGGSEGGGSEGGGSGGGSGSGDFDYEKMANANKGAMTENADENALQSDAKGKLDSVATDYGAAIDGFIGDVSGLANGNGATGDFAGSNSQMAQVGDGDNSPLMNNFRQYLPSLPQSVECRPFVFSAGKPYEFSIDCDKINLFRGVFAFLLYVATFMYVFSTFANILRNKES
notes: Control; whole phage, applied both after treatment with the biotinylating reagent and untreated; also called non-displaying phage
Regarding B1, the binding result was “no binding”.
